In patent US20040151721A1 (Takeda / Millennium, published 2004):
Values joined by “and” are separate entries in the source; they are usually repeats but may differ in a detail not shown here. Equal entries are not always repeated.

Legend:
[1] = target: T1, CCR1 expressed on L1/2 transfectants (UniProt P32246 1-355, limits assumed); assay: flow cytometry on L1/2 transfectants, hybridoma supernatant
T1 construct: whole, on cells; also called CCR1 transfectants
T1 sequence (looked up): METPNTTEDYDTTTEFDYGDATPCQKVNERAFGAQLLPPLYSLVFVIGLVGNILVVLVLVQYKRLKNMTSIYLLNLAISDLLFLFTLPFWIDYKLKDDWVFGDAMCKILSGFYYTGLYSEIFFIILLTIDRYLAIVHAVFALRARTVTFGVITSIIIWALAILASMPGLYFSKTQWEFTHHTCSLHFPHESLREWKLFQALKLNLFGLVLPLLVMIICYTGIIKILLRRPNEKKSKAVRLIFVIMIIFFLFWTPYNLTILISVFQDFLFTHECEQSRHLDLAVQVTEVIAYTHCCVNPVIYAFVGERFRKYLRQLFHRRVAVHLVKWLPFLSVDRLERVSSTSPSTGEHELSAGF
Description: (§1) For the staining of cultured transfectant cell lines 0.5×10^6 cells in 50 μl were resuspended in PBS+1% FCS in a 96 well polystyrene V-bottom plate. 50 μl of primary antibody supernatants or HT medium (negative control) were added, and the samples were incubated at 4° C. for 30 min. 100 μl of PBS were added and the cells were pelleted by centrifugation and washed once with PBS. The pellet was resuspended in 100 μl PBS+1% FCS containing FITC-conjugated goat anti-mouse IgG antibody (a 1:250 dilution) and incubated for thirty minutes at 4° C. in the dark. The cells were washed twice with PBS, resuspended in PBS, and analyzed by flow cytrometry with a FacScan cytometer using the CellQuest software (Becton-Dickenson) Cells were fixed with PBS/1% formaldehyde if they were not to be analyzed the same day. Monoclonal antibodies 1D9 and 8G2 stain CCR2 transfectants but not CCR1 or CCR5 transfectants (FIG. 1).

[2] = target: T2, CCR5 expressed on L1/2 transfectants (UniProt P51681 1-352, limits assumed); assay: as above
T2 construct: whole, on cells; also called CCR5 transfectants
Description: as §1

[3] = target: T3, human CCR2, endogenous on THP-1 cells / THP-1 cell membranes, fresh PBMC and whole blood cells (human, UniProt P41597 1-374); assay: inhibition of 0.1 nM [125I]MCP-1 binding to fresh PBMC, filtration and scintillation counting
T3 construct: whole, on cells; Native receptor; It was used on whole cells and as a THP-1 membrane preparation; The splice form is not specified for THP-1; also called CCR2b (on blood cells)
Description: The amount of bound tracer was determined by separation of free from bound by filtration and scintillation counting. The data was analyzed to determine the IC50 value as for FIG. 4.
(§2) Competition binding experiments were performed by including variable concentrations of unlabeled MCP-1, 1D9 antibody, or a negative control IgG2a. Nonspecific binding was determined following the addition of a 2500-fold excess of unlabeled MCP-1. Samples were incubated for 60 minutes at room temperature, and bound and free tracer were separated by filtration through 96-well GF/B filterplates presoaked in 0.3% polyethyleneimine.

[4] = target: T3, human CCR2, endogenous on THP-1 cells / …; assay: inhibition of 0.1 nM [125I]MCP-1 binding to THP-1 cell membranes, filtration and scintillation counting
Description: The amount of bound tracer was determined by separation of free from bound by filtration and scintillation counting. The data was analyzed to determine the IC50 value by non-linear regression using a 4-parameter logistic equation with KaleidaGraph software.
as §2

T3 sequence (P41597 whole entry, canonical isoform): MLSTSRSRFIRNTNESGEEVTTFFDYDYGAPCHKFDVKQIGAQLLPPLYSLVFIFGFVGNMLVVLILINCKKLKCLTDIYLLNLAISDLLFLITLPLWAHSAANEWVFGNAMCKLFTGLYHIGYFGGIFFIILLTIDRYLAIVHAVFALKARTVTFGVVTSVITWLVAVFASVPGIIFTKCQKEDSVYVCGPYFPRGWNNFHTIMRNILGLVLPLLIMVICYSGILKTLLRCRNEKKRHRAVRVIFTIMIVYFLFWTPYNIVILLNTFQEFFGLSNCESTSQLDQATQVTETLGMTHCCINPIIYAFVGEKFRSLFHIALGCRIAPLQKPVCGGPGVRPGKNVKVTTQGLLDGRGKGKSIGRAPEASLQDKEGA
T2 sequence (P51681 whole entry): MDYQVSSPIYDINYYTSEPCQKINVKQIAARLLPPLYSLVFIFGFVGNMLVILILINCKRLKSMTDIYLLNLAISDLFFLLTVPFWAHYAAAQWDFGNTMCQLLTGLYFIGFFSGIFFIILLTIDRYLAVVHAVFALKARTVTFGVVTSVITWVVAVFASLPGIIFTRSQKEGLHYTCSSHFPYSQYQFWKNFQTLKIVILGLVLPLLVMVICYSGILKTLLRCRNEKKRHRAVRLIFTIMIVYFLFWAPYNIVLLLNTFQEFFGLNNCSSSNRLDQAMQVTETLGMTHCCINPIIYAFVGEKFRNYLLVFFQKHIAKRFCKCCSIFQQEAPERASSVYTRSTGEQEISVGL

- binding result [1]: no binding
- binding result [2]: no binding
- IC50 [3]: 0.04 µg/mL and ~0.2 nM
- IC50 [4]: ~0.004 µg/mL and ~0.02 nM
B1: murine monoclonal antibody LS132.1D9 (1D9) (antibody, V domains shown)
VH: EVQLVESGGGLVQPKGSLKLSCAASGFSFNAYAMNWVRQAPGKGLEWVARIRTKNNNYATYYADSVKDRYTISRDDSESMLFLQMNNLKTEDTAMYYCVTFYGNGVWGTGTTVTVSS
VL: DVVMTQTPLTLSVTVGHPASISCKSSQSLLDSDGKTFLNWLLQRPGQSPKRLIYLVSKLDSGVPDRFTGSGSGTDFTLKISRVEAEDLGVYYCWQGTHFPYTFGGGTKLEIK
notes: Mouse hybridoma antibody with a kappa light chain; The controls used were murine IgG2a and an 'isotype-matched' antibody, so IgG2a is implied; It was used as hybridoma supernatant in FACS; also called mAb 1D9; mus-1D9
